Molecular target: T1, endogenous iRhom2 on RPMI-8226 cells (Homo sapiens, UniProt Q6PJF5)
T1 construct: RPMI-8226 cells, a human B lymphocytic cell line endogenously expressing iRhom2; host or cells: RPMI-8226
T1 sequence (Q6PJF5 1-856): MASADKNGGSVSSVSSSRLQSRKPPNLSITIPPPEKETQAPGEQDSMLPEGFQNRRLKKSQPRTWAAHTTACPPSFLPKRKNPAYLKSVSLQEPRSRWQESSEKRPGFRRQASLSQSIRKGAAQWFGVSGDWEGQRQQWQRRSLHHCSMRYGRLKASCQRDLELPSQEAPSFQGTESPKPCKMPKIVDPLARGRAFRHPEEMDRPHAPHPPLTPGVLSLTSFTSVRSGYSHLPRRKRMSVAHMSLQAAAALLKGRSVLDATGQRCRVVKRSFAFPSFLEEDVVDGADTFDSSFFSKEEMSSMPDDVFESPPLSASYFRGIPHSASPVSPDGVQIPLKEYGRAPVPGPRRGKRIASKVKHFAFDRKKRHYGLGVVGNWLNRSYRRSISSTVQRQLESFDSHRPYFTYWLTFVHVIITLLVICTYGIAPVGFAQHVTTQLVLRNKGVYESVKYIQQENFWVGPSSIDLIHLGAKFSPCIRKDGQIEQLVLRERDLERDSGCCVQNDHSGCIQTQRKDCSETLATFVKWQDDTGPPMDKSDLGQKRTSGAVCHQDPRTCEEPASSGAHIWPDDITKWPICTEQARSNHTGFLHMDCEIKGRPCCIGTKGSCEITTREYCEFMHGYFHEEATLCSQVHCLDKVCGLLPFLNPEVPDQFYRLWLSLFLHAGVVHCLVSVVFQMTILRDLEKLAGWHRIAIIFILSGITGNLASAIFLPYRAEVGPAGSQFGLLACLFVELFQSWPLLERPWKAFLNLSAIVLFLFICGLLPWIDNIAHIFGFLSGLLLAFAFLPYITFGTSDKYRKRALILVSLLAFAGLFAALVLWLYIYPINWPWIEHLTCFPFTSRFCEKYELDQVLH
Test: FACS binding to RPMI-8226 cells endogenously expressing iRhom2
Conditions: antibody at 3 μg/ml
Procedure: In this study, binding specificity analyses of the humanized antibody 42-B-02 as a representative example of the antibodies of the invention in cell lines endogenously expressing iRhom2 were performed. The studies were conducted on RPMI-8226 cells, a human B lymphocytic cell line endogenously expressing iRhom2 but being endogenously negative for iRhom1, on THP-1 cells, a human monocytic cell line endogenously expressing both iRhom2 and iRhom1 and on RH-30 cells, a human […] cell line endogenously negative for iRhom2 but endogenously expressing iRhom1.
In brief, human RPMI-8226 cells (Deutsche Sammlung von Mikroorganismen und Zellkulturen, Germany), THP-1 cells (American Type Culture Collection, USA) and RH-30 cells (Deutsche Sammlung von Mikroorganismen und Zellkulturen, Germany) were harvested with 10 mM EDTA in PBS, washed and resuspended in FACS buffer (PBS, 3% FBS, 0.05% sodium azide), and seeded in Nunc U-bottom 96-well plates (Thermo Fisher Scientific, USA) at approximately 2×10^5 cells per well. In order to pellet cells and remove supernatants, the plates were centrifuged at 1,500 rpm and 4° C. for 3 minutes. […] Finally, cells were resuspended in 150 μl per well of FACS buffer and analyzed using a BD Accuri™ C6 Plus flow cytometer (Becton Dickinson, Germany).

B1: 42-B-02: humanized antibody binding human iRhom2; HCVD SEQ ID NO 33, LCVD SEQ ID NO 37 (antibody, V domains shown)
VH: QVTLRESGPALVKPTQTLTLTCTFSGFSLSTFGRGVGWIRQPPGKALEWLAHIWWDDEKYYNSALKSRLTISKDTSKNQVVLTITNMDPVDTATYYCARIQNYGSNYWYFDVWGQGTLVTVSS
VL: AIQLTQSPSSLSASVGDRVTITCRASSRISYMFWYQQKPGKAPKVLIYDTSNLASGVPSRFSGSGSGTDYTLTISSLQPEDFATYYCQQWNSYPLTFGQGTKLEIK
modifications: antibody sequences
  binding to RPMI-8226 cells (endogenously expressing iRhom2, negative for iRhom1): strong binding

Source: patent US12404345B2, “Humanized antibodies against iRHOM2” (SCIRHOM GMBH, priority 2021, dated 2025)
